Assay in all cases: crystal structure
Test [1] deals with SARS-CoV-2 M pro G15S (SARS-CoV-2).
The target of test [2] is SARS-CoV-2 M pro M49I (SARS-CoV-2).
Test [3] concerns the target SARS-CoV-2 M pro Y54C (SARS-CoV-2).
The target in test [4] is SARS-CoV-2 M pro S46F (SARS-CoV-2).
In test [5] the target is SARS-CoV-2 M pro V186F (SARS-CoV-2).
Test [6] deals with SARS-CoV-2 M pro K90R (SARS-CoV-2).
The target in test [7] is SARS-CoV-2 M pro P132H (SARS-CoV-2).

The term stoichiometry N denotes the number of molecules, sites or subunits per partner or assembly.

In test [1], SARS-CoV-2 M pro G15S (enzyme) yielded a stoichiometry N of 2.
In the case of SARS-CoV-2 M pro M49I (enzyme), the stoichiometry N in test [2] was 2.
As for SARS-CoV-2 M pro Y54C (enzyme), in test [3], the stoichiometry N came to 2.
In test [4], SARS-CoV-2 M pro S46F (enzyme) displayed a stoichiometry N of 2.
SARS-CoV-2 M pro V186F (enzyme) registered a stoichiometry N in test [5] of 2.
As for SARS-CoV-2 M pro K90R (enzyme), the stoichiometry N in test [6] was 2.
As for SARS-CoV-2 M pro P132H (enzyme), the stoichiometry N in test [7] was found to be 2.

(Values after article PMC11693862 (Acta Biochimica et Biophysica Sinica, 2024).)
